Source: paper PMC8651051

Columns and labels:
Conditions in all cases: N = 1 experiment
[1] = molecular target: CV503_664_GS
[2] = molecular target: CV503_993_EL
[3] = molecular target: CV993_521_GS
[4] = molecular target: CV664_993_GS

| Substance | percent of parent [1] | percent of parent [2] | percent of parent [3] | percent of parent [4] |
| --- | --- | --- | --- | --- |
| full-length SARS-CoV-2 spike D614G, expressed on the cell surface (from UniProt P0DTC2) Alpha (B.1.1.7) | 236 % of D614G | 214 % of D614G | 222 % of D614G | 257 % of D614G |
| full-length SARS-CoV-2 spike D614G, expressed on the cell surface (from UniProt P0DTC2) Beta (B.1.351) | 202 % of D614G | 170 % of D614G | – | – |
